Assay results: PMC4130184

Molecular target: T1, PRIN2;CSP41b (Arabidopsis thaliana?;Arabidopsis thaliana?) (UniProt Q9XIK0+Q9SA52)
T1 sequence 1: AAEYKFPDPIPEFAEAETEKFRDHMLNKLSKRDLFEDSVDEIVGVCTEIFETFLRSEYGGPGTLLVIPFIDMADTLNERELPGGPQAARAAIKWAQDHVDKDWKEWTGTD
T1 sequence 2: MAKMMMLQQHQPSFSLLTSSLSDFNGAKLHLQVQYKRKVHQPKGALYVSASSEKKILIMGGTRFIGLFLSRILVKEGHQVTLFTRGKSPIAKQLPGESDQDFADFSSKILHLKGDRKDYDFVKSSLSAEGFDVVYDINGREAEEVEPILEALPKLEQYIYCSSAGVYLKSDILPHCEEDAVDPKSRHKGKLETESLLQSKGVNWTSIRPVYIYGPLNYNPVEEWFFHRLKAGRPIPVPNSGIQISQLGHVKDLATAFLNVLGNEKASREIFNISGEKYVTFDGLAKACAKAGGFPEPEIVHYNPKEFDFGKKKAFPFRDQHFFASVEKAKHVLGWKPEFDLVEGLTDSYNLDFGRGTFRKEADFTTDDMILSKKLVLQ
Assay: EMSA
Details: EMSA: 10 mM Tris-HCl, 25 mM KCl, 1 mM DTT (1x from 10x stock; pH not stated), 1 ug poly(dI-dC) per 25 uL, 2.5% glycerol, 0.05% Triton X-100, 5 mM MgCl2, 10 mM …

Q: “ACCCACTACGGATCGTATTCAATCGTATTCATATGATTTGGAAAAAATATTCCTAGAGCAATTCTATTTCTATGTATGTGGATTCGCTTCTAATTTATTTCATCGATTACAAAAAATTTTTTATGAATCTAAACTAAAAGGATCTTATCCATTTTACATTGGTTGACATGGCTATATAAGTCATGTTATACTGTTTC (double strand) [psbA promoter probe (197/198 bp)]” was tested. Which binding did it give?
A: binds
